Assay results from patent US20160347802A1 (MAX PLANCK GESELLSCHAFT ZUR FOERDERUNG DER WISSENSCHAFTEN E …, published 2016).

Experiments:
[1] = biological target: the molecule itself; experiment: AVEXIS, prey on bait NTN3; white = No binding
Excerpt: (§1) The Matn4-bait served as an internal prey-protein control and was used for normalization of the A486 nm values; conditioned medium (CM) serves as negative control; n=3.

[2] = biological target: T1, human Netrin-G1, AVEXIS protein (human, UniProt Q9Y2I2 29-510); experiment: AVEXIS, prey on bait NTNG1; white = No binding
T1 construct: not shown: AVEXIS tag (bait or prey)
T1 sequence (looked up): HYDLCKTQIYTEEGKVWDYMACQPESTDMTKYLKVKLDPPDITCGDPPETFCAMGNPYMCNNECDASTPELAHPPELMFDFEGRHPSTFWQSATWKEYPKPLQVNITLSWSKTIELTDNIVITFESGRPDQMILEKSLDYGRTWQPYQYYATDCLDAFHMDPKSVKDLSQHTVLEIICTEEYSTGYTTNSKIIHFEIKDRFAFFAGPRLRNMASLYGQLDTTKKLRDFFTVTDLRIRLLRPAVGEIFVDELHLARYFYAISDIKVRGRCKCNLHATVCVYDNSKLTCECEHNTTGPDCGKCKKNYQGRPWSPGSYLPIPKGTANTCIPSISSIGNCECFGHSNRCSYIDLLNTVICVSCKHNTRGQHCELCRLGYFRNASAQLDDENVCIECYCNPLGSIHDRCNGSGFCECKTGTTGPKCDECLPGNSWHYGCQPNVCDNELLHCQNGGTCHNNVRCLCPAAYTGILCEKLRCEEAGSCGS
Excerpt: as §1

[3] = biological target: the molecule itself; experiment: AVEXIS, prey NTN3 on bait NTN3
Excerpt: as §1

[4] = biological target: T2, Matn4 ECD, mono-biotinylated bait protein (positive control); experiment: AVEXIS, prey on bait Matn4 (+), positive control for the prey; dark = Binding
T2 construct: extracellular domain; also called Matn4-bait
Excerpt: as §1

[5] = biological target: T3, human Netrin-4, AVEXIS protein (human, UniProt Q9HB63 19-628); experiment: AVEXIS, prey NTN3 on bait NTN4
T3 construct: not shown: AVEXIS tag (bait or prey)
T3 sequence (looked up): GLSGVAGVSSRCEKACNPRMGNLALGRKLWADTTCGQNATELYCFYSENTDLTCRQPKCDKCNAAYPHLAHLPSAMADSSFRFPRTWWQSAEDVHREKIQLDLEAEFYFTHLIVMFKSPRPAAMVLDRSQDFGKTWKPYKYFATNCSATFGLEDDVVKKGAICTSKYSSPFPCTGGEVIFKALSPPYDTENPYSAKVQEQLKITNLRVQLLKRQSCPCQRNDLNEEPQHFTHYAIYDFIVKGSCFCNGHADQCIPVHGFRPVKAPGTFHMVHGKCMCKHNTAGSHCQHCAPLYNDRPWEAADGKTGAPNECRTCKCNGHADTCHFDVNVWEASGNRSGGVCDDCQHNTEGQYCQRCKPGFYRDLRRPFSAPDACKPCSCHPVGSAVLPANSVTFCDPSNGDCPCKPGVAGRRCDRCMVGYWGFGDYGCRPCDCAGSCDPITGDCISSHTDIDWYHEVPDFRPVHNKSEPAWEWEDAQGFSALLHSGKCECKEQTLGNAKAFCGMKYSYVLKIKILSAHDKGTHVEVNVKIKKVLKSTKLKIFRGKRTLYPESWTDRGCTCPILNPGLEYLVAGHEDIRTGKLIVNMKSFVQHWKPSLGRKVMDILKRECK
Excerpt: as §1

[6] = biological target: T3, human Netrin-4, AVEXIS protein; experiment: AVEXIS, prey on bait NTN4; white = No binding
Excerpt: as §1

[7] = biological target: T4, human Netrin-G2, AVEXIS protein (human, UniProt Q96CW9 18-507); experiment: AVEXIS, prey on bait NTNG2; white = No binding
T4 construct: not shown: AVEXIS tag (bait or prey)
T4 sequence (looked up): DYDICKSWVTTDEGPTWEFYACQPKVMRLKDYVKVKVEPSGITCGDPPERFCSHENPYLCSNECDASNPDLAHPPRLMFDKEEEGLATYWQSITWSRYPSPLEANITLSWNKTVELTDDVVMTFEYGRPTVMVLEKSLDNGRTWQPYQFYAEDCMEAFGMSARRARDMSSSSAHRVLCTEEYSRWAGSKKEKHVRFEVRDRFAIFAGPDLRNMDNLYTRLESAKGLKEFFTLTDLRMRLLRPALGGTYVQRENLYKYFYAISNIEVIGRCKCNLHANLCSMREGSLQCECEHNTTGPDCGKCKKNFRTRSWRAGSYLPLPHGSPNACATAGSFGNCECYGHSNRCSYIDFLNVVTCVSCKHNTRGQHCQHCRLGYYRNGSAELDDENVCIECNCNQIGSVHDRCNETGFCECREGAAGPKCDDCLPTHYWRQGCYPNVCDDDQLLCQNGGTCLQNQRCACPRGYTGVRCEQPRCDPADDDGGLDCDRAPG
Excerpt: as §1

[8] = biological target: T5, human Netrin1, recombinant AVEXIS protein (biotinylated when immobilised) (human, UniProt O95631 25-604); experiment: AVEXIS, prey NTN1 on bait NTN3
T5 construct: also called NTN1
Excerpt: as §1

[9] = biological target: T5, human Netrin1, recombinant AVEXIS …; experiment: AVEXIS, prey on bait NTN1; white = No binding
Excerpt: as §1

[10] = biological target: the molecule itself; experiment: AVEXIS, pentameric prey zebrafish DraxinB on bait zDraxinB
[11] = biological target: the molecule itself; experiment: AVEXIS, prey on bait zDraxinB, upper value; white = No binding
[12] = biological target: T6, zebrafish DraxinA, AVEXIS prey or bait protein (zebrafish, UniProt Q4V9H3 24-360); experiment: AVEXIS, prey on bait zDraxinA, upper value; white = No binding
T6 construct: Prey and bait forms of the same protein are kept as one molecule; Preys are pentameric except in the monomeric-prey experiments; also called DraxinA prey protein
T6 chain: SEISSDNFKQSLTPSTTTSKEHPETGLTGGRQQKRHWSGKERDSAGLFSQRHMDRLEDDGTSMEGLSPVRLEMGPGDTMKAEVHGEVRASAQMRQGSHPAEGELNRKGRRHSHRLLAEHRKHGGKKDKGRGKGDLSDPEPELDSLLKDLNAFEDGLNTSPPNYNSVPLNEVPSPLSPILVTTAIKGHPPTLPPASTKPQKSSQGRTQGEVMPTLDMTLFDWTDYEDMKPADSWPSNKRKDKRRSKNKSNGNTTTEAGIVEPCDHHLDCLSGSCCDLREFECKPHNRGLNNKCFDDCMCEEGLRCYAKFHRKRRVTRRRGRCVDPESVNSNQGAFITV

[13] = biological target: T6, zebrafish DraxinA, AVEXIS prey or bait …; experiment: AVEXIS, prey on bait zDraxinA, lower value; white = No binding
[14] = biological target: the molecule itself; experiment: AVEXIS, prey on bait zDraxinB, lower value; white = No binding
[15] = biological target: T6, zebrafish DraxinA, AVEXIS prey or bait …; experiment: AVEXIS, pentameric prey zebrafish DraxinB on bait zDraxinA
[16] = biological target: T7, human DRAXIN, AVEXIS prey or bait protein (human, UniProt Q8NBI3 26-349); experiment: AVEXIS, pentameric prey zebrafish DraxinB on bait hDRAXIN
T7 construct: It was tested in both bait and prey orientations
T7 sequence: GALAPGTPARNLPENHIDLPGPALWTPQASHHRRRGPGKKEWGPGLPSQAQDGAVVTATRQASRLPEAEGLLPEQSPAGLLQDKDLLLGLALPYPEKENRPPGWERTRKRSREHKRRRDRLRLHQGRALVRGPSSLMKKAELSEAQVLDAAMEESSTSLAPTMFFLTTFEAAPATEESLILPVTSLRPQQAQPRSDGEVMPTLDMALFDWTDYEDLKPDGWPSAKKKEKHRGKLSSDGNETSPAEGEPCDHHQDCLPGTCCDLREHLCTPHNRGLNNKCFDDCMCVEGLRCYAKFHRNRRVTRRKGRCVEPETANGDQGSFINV

[17] = biological target: T8, zebrafish Netrin1a, AVEXIS bait or prey protein (zebrafish); experiment: AVEXIS competition: Netrin1a bait, DCC prey, purified Draxin as inhibitor
T8 construct: Prey and bait forms are kept as one molecule; also called Ntn1a; Netrin1a bait
Excerpt: (§2) The procedure of the competition assay is based on the AVEXIS assay.

[18] = biological target: T8, zebrafish Netrin1a, AVEXIS bait or prey …; experiment: AVEXIS competition: Netrin1a bait, monomeric DCC prey, Draxin added 30 min before the prey
[19] = biological target: T8, zebrafish Netrin1a, AVEXIS bait or prey …; experiment: AVEXIS competition: Netrin1a bait, Unc5b prey, purified Draxin as inhibitor
Excerpt: as §2

[20] = biological target: T8, zebrafish Netrin1a, AVEXIS bait or prey …; experiment: AVEXIS competition: Netrin1a bait preincubated with monomeric DCC prey, Draxin added 30 min after the prey
[21] = biological target: T8, zebrafish Netrin1a, AVEXIS bait or prey …; experiment: AVEXIS competition: Netrin1a bait, monomeric DCC prey, Draxin added together with the prey
Excerpt: as §2
In order to do so we carried out an AVEXIS based competition assay and tested three different settings (FIG. 9A).

B1: human Netrin-3, AVEXIS protein (ligand)
chain: not shown
notes: not shown: AVEXIS tag (bait or prey)
[1]
  A486nm: 0.068
[2]
  A486nm: 0.069
[3]
  binding result: no binding
[4]
  A486nm: 0.224
[5]
  binding result: no binding
[6]
  A486nm: 0.064
[7]
  A486nm: 0.06
[8]
  binding result: no binding
[9]
  A486nm: 0.068

B2: zebrafish DraxinB, AVEXIS protein (ligand)
chain: TNTHHNSPMEVFSENIIIPPKPEASIHHHTHQRTDRGRKERMTASQLRERPRIAIFHTQNEGPDLEGLSPVRLEMEPADKRRVMTPRKKTFMGSDSLIQEKMNISPGAETPEKAMRRPTVRKVFGGHITRAPHEEESLASGKKRRVSFDQRLNKASFGSPTEPVLPAATVGTFILPITAAVDGNPNPSSEPQVRRYLGGDVAPTFNMALFDWTDYEDMRPGDKKQYSKKQGSEKQATQSPSTGLVRLTSENNVCKHHLDCLPGSCCNLRKHVCELHNRGFNNKCYDSCMCEEGLRCYAKSHRHYRITRKKGQCVDPEDLNHAVSRWMQM
[10]
  binding result: no binding
[11]
  A486nm: 0.057
[12]
  A486nm: 0.061
[13]
  A486nm: 0.056
[14]
  A486nm: 0.059
[15]
  binding result: no binding
[16]
  binding result: no binding

B3: purified His-tagged full-length zebrafish Draxin protein (Draxin-CD4d3+4-6XHis) (ligand)
chain: SEISSDNFKQSLTPSTTTSKEHPETGLTGGRQQKRHWSGKERDSAGLFSQRHMDRLEDDGTSMEGLSPVRLEMGPGDTMKAEVHGEVRASAQMRQGSHPAEGELNRKGRRHSHRLLAEHRKHGGKKDKGRGKGDLSDPEPELDSLLKDLNAFEDGLNTSPPNYNSVPLNEVPSPLSPILVTTAIKGHPPTLPPASTKPQKSSQGRTQGEVMPTLDMTLFDWTDYEDMKPADSWPSNKRKDKRRSKNKSNGNTTTEAGIVEPCDHHLDCLSGSCCDLREFECKPHNRGLNNKCFDDCMCEEGLRCYAKFHRKRRVTRRRGRCVDPESVNSNQGAFITV
notes: Expressed in HEK293-6E cells and purified on HisTrap HP; also called purified full length DraxinA; purified DraxinA; not shown: rat Cd4d3+4 tag and 6xHis
[17]
  IC50 (read off the curve): ~70 nM
[18]
  IC50 (read off the curve): ~7 nM
[19]
  IC50 (read off the curve): ~10 nM
[20]
  IC50 (read off the curve): ~20 nM
[21]
  IC50 (read off the curve): ~10 nM
